Literature values in article PMC5075240.

Biological target: calmodulin (UniProt P0DP23)

Kd: 50 nM
Substance: TRPV1 C-terminal fragment 767-801 (from UniProt O35433)
